The values that follow come from patent US20190300590A1 (PROTAGONIST THERAPEUTICS, published 2019).

Bridges are numbered along the chain shown (N, C = ends).

The target in assay [1] is T1, IL23R_huFC (human, UniProt Q5VWK5 24-353).
T1 sequence (looked up): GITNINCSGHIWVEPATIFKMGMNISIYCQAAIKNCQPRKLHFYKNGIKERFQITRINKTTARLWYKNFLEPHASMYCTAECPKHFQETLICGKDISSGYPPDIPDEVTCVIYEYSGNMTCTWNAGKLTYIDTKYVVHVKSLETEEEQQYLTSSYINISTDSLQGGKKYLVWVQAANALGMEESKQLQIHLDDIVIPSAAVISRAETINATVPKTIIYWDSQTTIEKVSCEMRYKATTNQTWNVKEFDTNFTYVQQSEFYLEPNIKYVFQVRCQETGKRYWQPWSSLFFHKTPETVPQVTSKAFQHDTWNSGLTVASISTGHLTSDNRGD
Description: IL23-IL23R competitive ELISA, IC50 grade. A general note: An ELISA detects its analyte on a solid surface through an enzyme-linked reagent.

For assay [2], the target named is T1, IL23R_huFC. Description: IL23-IL23R competitive ELISA.
The target in assay [3] is mixture of IL-12Rβ1_huFC and IL-23R_huFC (mixed surface) (human, UniProt P42701 24-540; Q5VWK5 24-353, limits assumed). Description: SPR, mixed surface of IL-12Rβ1 and IL-23R. Background: Surface plasmon resonance follows binding to a sensor surface in real time, without labels.
In assay [4] the target is T1, IL23R_huFC. Put plainly: IL23-IL23R competitive ELISA, IC50 grade. This is another data set of the same source.

B1: Hy-CADWVCYWHTFG-NH2 (peptide)
peptide: H-CADWVCYWHTFG-NH2
modifications: disulfide 1-6 (inferred)
For B1, the IC50 (commonly the midpoint of a concentration-inhibition curve) with IL23R_huFC [1] lay in the range of 100 to 1000 nM; in the assay with IL23R_huFC [2], 500 to 1000 nM.

B2: Recombinant human IL-23 (Humanzyme) (ligand)
chain 1: RAVPGGSSPAWTQCQQLSQKLCTLAWSAHPLVGHMDLREEGDEETTNDVPHIQCGDGCDPQGLRDNSQFCLQRIHQGLIFYEKLLGSDIFTGEPSLLPDSPVGQLHASLLGLSQLLQPEGHHWETQQIPSLSPSQPWQRLLLRFKILRSLQAFVAVAARVFAHGAATLSP
chain 2: IWELKKDVYVVELDWYPDAPGEMVVLTCDTPEEDGITWTLDQSSEVLGSGKTLTIQVKEFGDAGQYTCHKGGEVLSHSLLLLHKKEDGIWSTDILKDQKEPKNKTFLRCEAKNYSGRFTCWWLTTISTDLTFSVKSSRGSSDPQGVTCGAATLSAERVRGDNKEYEYSVECQEDSACPAAEESLPIEVMVDAVHKLKYENYTSSFFIRDIIKPDPPKNLQLKPLKNSRQVEVSWEYPDTWSTPHSYFSLTFCVQVQGKSKREKKDRVFTDKTSATVICRKNASISVRAQDRYYSSSWSEWASVPCS
Take B2: the “fold of affinity against Compound C” value in assay [3] was around 14 fold.

B3: (Ac-CADWVCYWHTFG-[β-Ala]-[(D)Lys]-OH)2DIG (peptide)
peptide: CADWVCYWHTFGAK
modifications: not fully specified; Ac-; [β-Ala]; [(D)Lys]; DIG through Lysine
Molecule B3 came in with an IC50 in the assay with IL23R_huFC [4] of 25 to 100 nM.
